Assay results published in the supplement of paper PMC9732359.
± gives the uncertainty stated by the source.

Test: protein stability index of a GFP-peptide fusion (yeast GPS) (PSI 1-4); higher = more stable; sorted into four equal gates, so the index is relative within each strain
Outline: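 Tiled 17-residue yeast protein peptides were fused downstream of GFP in a plasmid that also expresses Cherry, and the pooled library was carried in yeast. Mid-log cultures in leucine-free medium were sorted into four equal gates by GFP/Cherry fluorescence ratio, and plasmids from each gate were PCR-amplified and Illumina-sequenced, with reads assigned to strains by barcodes. The protein stability index for each peptide was each gate's read frequency times its gate number, summed.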

DPSMDPELAMALRLSME [RPN10]
protein stability index (doa10∆): 2.98 ± 0.062
protein stability index (pdr5∆): 3.18 ± 0.05
protein stability index (san1∆): 3.28 ± 0.068
protein stability index (ubr1∆): 2.96 ± 0.054

DQCKKQRRCLHCGALNG [RPO31]
protein stability index (doa10∆): 2.6 ± 0.14
protein stability index (pdr5∆): 2.71 ± 0.18
protein stability index (san1∆): 2.4 ± 0.11
protein stability index (ubr1∆): 2.57 ± 0.11

DQEIVIQQLHSVLNPFL [ISW2]
protein stability index (doa10∆): 2.3 ± 0.042
protein stability index (pdr5∆): 2.09 ± 0.042
protein stability index (san1∆): 1.98 ± 0.056
protein stability index (ubr1∆): 2.26 ± 0.032

DQITKMKDRLVEWNDQV [RPN9]
protein stability index (doa10∆): 3.35 ± 0.12
protein stability index (pdr5∆): 3.05 ± 0.099
protein stability index (san1∆): 3.43 ± 0.079
protein stability index (ubr1∆): 3.29 ± 0.079

DQLDSEAASITRKSLNN [ECM29]
protein stability index (doa10∆): 2.89 ± 0.1
protein stability index (pdr5∆): 2.91 ± 0.1
protein stability index (san1∆): 3.04 ± 0.064
protein stability index (ubr1∆): 2.95 ± 0.049

DQPQSSEAKRTKFSNPA [BRR2]
protein stability index (doa10∆): 3.1 ± 0.093
protein stability index (pdr5∆): 2.65 ± 0.068
protein stability index (san1∆): 3.24 ± 0.086
protein stability index (ubr1∆): 3.13 ± 0.084

DQTNHIESDSILNLLNI [ECM29]
protein stability index (doa10∆): 3.02 ± 0.064
protein stability index (pdr5∆): 3.04 ± 0.072
protein stability index (san1∆): 2.99 ± 0.077
protein stability index (ubr1∆): 3.03 ± 0.059

DRAQNSYQPMYQRPMQV [SSN3]
protein stability index (doa10∆): 1.55 ± 0.047
protein stability index (pdr5∆): 1.73 ± 0.057
protein stability index (san1∆): 1.55 ± 0.16
protein stability index (ubr1∆): 2.64 ± 0.041

DRGLSIKLNGSTLLCTD [SNU114]
protein stability index (doa10∆): 3.17 ± 0.14
protein stability index (pdr5∆): 2.76 ± 0.08
protein stability index (san1∆): 2.34 ± 0.092
protein stability index (ubr1∆): 3 ± 0.2

DRIIHTWRTQLAASEIG [ECM29]
protein stability index (doa10∆): 1.65 ± 0.056
protein stability index (pdr5∆): 1.84 ± 0.06
protein stability index (san1∆): 1.65 ± 0.062
protein stability index (ubr1∆): 1.83 ± 0.035

DRKIQGWLGALTMANLP [ARP7]
protein stability index (doa10∆): 2.8 ± 0.066
protein stability index (pdr5∆): 3 ± 0.063
protein stability index (san1∆): 2.65 ± 0.069
protein stability index (ubr1∆): 2.81 ± 0.045

DRRAQRVAEKRDALLKE [RPL19A]
protein stability index (doa10∆): 3.19 ± 0.12
protein stability index (pdr5∆): 3.25 ± 0.097
protein stability index (san1∆): 3.07 ± 0.15
protein stability index (ubr1∆): 3.44 ± 0.067

DRVQQDSEDEDSMKDTT [YML031W/NDC1]
protein stability index (doa10∆): 3.25 ± 0.14
protein stability index (pdr5∆): 3.22 ± 0.16
protein stability index (san1∆): 3.26 ± 0.091
protein stability index (ubr1∆): 3.25 ± 0.07

DSAKEWPQSKNCEYEDP [RPB3]
protein stability index (doa10∆): 3.6 ± 0.19
protein stability index (pdr5∆): 3.13 ± 0.13
protein stability index (san1∆): 3.27 ± 0.14
protein stability index (ubr1∆): 3.27 ± 0.14

DSEIEISSEKLLTLTNA [RPP1A]
protein stability index (doa10∆): 2.99 ± 0.063
protein stability index (pdr5∆): 2.92 ± 0.073
protein stability index (san1∆): 2.93 ± 0.061
protein stability index (ubr1∆): 3.12 ± 0.055

DSHKRIPDMSKNVELGW [SNU114]
protein stability index (doa10∆): 3.06 ± 0.17
protein stability index (pdr5∆): 3.28 ± 0.11
protein stability index (san1∆): 2.79 ± 0.13
protein stability index (ubr1∆): 3.41 ± 0.097

DSIDLAPNTLTNILISP [YML103C/NUP188]
protein stability index (doa10∆): 1.58 ± 0.11
protein stability index (pdr5∆): 1.87 ± 0.081
protein stability index (san1∆): 1.55 ± 0.15
protein stability index (ubr1∆): 1.56 ± 0.19

DSIPRDVAYLLKSESAT [YGL172W/NUP49]
protein stability index (doa10∆): 2.74 ± 0.092
protein stability index (pdr5∆): 3.11 ± 0.079
protein stability index (san1∆): 2.91 ± 0.05
protein stability index (ubr1∆): 3.19 ± 0.074

DSLKLNSKPVELKPVSL [YJL041W/NSP1]
protein stability index (doa10∆): 2.9 ± 0.082
protein stability index (pdr5∆): 2.79 ± 0.07
protein stability index (san1∆): 2.49 ± 0.097
protein stability index (ubr1∆): 2.63 ± 0.1

DSLSVPKVSAGDSGISP [SIR4]
protein stability index (doa10∆): 3.24 ± 0.12
protein stability index (pdr5∆): 3.24 ± 0.11
protein stability index (san1∆): 3.02 ± 0.084
protein stability index (ubr1∆): 3.18 ± 0.058

DSTIGNSKVDMKYDIFA [IRR1]
protein stability index (doa10∆): 2.82 ± 0.071
protein stability index (pdr5∆): 2.78 ± 0.082
protein stability index (san1∆): 2.71 ± 0.078
protein stability index (ubr1∆): 2.88 ± 0.06

DSTLILEQLAQHTTESD [RPB2]
protein stability index (doa10∆): 2.17 ± 0.05
protein stability index (pdr5∆): 2.67 ± 0.055
protein stability index (san1∆): 2.46 ± 0.072
protein stability index (ubr1∆): 2.43 ± 0.052

DTAGEESQQQDESLKDE [SWI3]
protein stability index (doa10∆): 3.36 ± 0.2
protein stability index (san1∆): 3.13 ± 0.16
protein stability index (ubr1∆): 3.61 ± 0.29

DTDNECVAAWGVCNHAF [HRT1]
protein stability index (doa10∆): 3.25 ± 0.095
protein stability index (pdr5∆): 3.3 ± 0.059
protein stability index (san1∆): 3.33 ± 0.054
protein stability index (ubr1∆): 3.15 ± 0.05

DTDSKPSSQSQNDTPMF [YLR018C/POM34]
protein stability index (doa10∆): 2.89 ± 0.044
protein stability index (pdr5∆): 3.17 ± 0.048
protein stability index (san1∆): 3 ± 0.039
protein stability index (ubr1∆): 2.95 ± 0.034

DTIATSATPNAAAFSQQ [GAL11]
protein stability index (doa10∆): 2.6 ± 0.056
protein stability index (pdr5∆): 2.92 ± 0.064
protein stability index (san1∆): 2.76 ± 0.055
protein stability index (ubr1∆): 2.82 ± 0.039

DTLDSKSNGSSDDDNIG [ISW2]
protein stability index (doa10∆): 3.26 ± 0.09
protein stability index (pdr5∆): 3.23 ± 0.074
protein stability index (san1∆): 3.11 ± 0.057
protein stability index (ubr1∆): 3.03 ± 0.067

DTRITPSKVSKIDSHVV [PRE6]
protein stability index (doa10∆): 2.76 ± 0.078
protein stability index (pdr5∆): 3.09 ± 0.064
protein stability index (san1∆): 2.46 ± 0.14
protein stability index (ubr1∆): 2.72 ± 0.063

DTTFSDFKEVEDFLHFI [SRB4]
protein stability index (doa10∆): 2.83 ± 0.06
protein stability index (pdr5∆): 2.09 ± 0.05
protein stability index (san1∆): 2.23 ± 0.064
protein stability index (ubr1∆): 2.56 ± 0.048

DVCKTRFNHLVTRLFFI [YML031W/NDC1]
protein stability index (doa10∆): 1.79 ± 0.046
protein stability index (pdr5∆): 1.53 ± 0.039
protein stability index (san1∆): 1.52 ± 0.072
protein stability index (ubr1∆): 1.77 ± 0.034

DVEVDDDFTNELKAELD [SEM1]
protein stability index (doa10∆): 3.25 ± 0.13
protein stability index (pdr5∆): 3.55 ± 0.11
protein stability index (san1∆): 3.54 ± 0.085
protein stability index (ubr1∆): 3.36 ± 0.056

DVKFPSNTTTQIQFTPL [SMC3]
protein stability index (doa10∆): 2.59 ± 0.16
protein stability index (pdr5∆): 2.64 ± 0.15
protein stability index (san1∆): 2.98 ± 0.14
protein stability index (ubr1∆): 2.76 ± 0.052

DVKKPFSFGTSQPNNTP [YLR335W/NUP2]
protein stability index (doa10∆): 2.61 ± 0.096
protein stability index (pdr5∆): 2.34 ± 0.083
protein stability index (san1∆): 2.5 ± 0.12
protein stability index (ubr1∆): 2.15 ± 0.064

DVLKSQANTEPENITKR [MCD1]
protein stability index (doa10∆): 3.06 ± 0.1
protein stability index (pdr5∆): 3.02 ± 0.083
protein stability index (san1∆): 2.98 ± 0.057
protein stability index (ubr1∆): 3.09 ± 0.046

DVNIIGKDRIAINVFPE [RPO31]
protein stability index (doa10∆): 2.75 ± 0.12
protein stability index (pdr5∆): 3.05 ± 0.12
protein stability index (san1∆): 2.88 ± 0.098
protein stability index (ubr1∆): 3.36 ± 0.086

DVNTNANANANATANAT [SNF11]
protein stability index (doa10∆): 3.13 ± 0.088
protein stability index (pdr5∆): 3.27 ± 0.081
protein stability index (san1∆): 3.23 ± 0.045
protein stability index (ubr1∆): 3.32 ± 0.063

DVQARRQFVSNVRSVIR [RPP1]
protein stability index (doa10∆): 2.02 ± 0.15
protein stability index (pdr5∆): 2.5 ± 0.12
protein stability index (san1∆): 1.65 ± 0.23
protein stability index (ubr1∆): 2.44 ± 0.13

DVVAKLEAKRKVSSAEY [RPL16A]
protein stability index (doa10∆): 1.69 ± 0.11
protein stability index (pdr5∆): 1.7 ± 0.071

DVVYALKRQGRTLYGFG [HHF1]
protein stability index (doa10∆): 2.77 ± 0.083
protein stability index (pdr5∆): 2.8 ± 0.11
protein stability index (san1∆): 2.34 ± 0.14
protein stability index (ubr1∆): 2.38 ± 0.083

DVYNRELDEHTTQIDLF [BRR2]
protein stability index (doa10∆): 3.07 ± 0.07
protein stability index (pdr5∆): 2.73 ± 0.056
protein stability index (san1∆): 2.9 ± 0.046
protein stability index (ubr1∆): 2.41 ± 0.04

DWIRFVSTKTNEYRLAF [RPL22A]
protein stability index (doa10∆): 2.03 ± 0.039
protein stability index (pdr5∆): 2.17 ± 0.045
protein stability index (san1∆): 2.75 ± 0.064
protein stability index (ubr1∆): 2.62 ± 0.042

DWVENELEALKLEAEEI [FAS2]
protein stability index (doa10∆): 3.29 ± 0.27
protein stability index (ubr1∆): 3.49 ± 0.24

DYITEAVFKIVLQPLLP [SNU114]
protein stability index (doa10∆): 1.44 ± 0.043
protein stability index (pdr5∆): 1.31 ± 0.066
protein stability index (san1∆): 1.38 ± 0.089
protein stability index (ubr1∆): 1.51 ± 0.055

DYLKNIIVENSGTSGDE [RPN2]
protein stability index (doa10∆): 3.43 ± 0.21
protein stability index (pdr5∆): 3.48 ± 0.15
protein stability index (san1∆): 3.14 ± 0.057
protein stability index (ubr1∆): 3.29 ± 0.1

DYNDVEVNSKKKNKRAL [BRR2]
protein stability index (doa10∆): 3.07 ± 0.098
protein stability index (pdr5∆): 2.95 ± 0.07
protein stability index (san1∆): 2.78 ± 0.12
protein stability index (ubr1∆): 3.02 ± 0.061

DYPFTQLGYIENSFYKK [POP1]
protein stability index (pdr5∆): 3.14 ± 0.17
protein stability index (san1∆): 2.98 ± 0.1
protein stability index (ubr1∆): 3.44 ± 0.13

DYQVQGLNWLISLHENK [ISW2]
protein stability index (doa10∆): 1.53 ± 0.052
protein stability index (pdr5∆): 2.15 ± 0.058
protein stability index (san1∆): 1.64 ± 0.078
protein stability index (ubr1∆): 2.19 ± 0.054

DYVNKTNSHLPAGKQVE [FAS1]
protein stability index (doa10∆): 3.16 ± 0.098
protein stability index (pdr5∆): 3.57 ± 0.24
protein stability index (san1∆): 3.08 ± 0.13
protein stability index (ubr1∆): 3.08 ± 0.11

EAAKPSLSFGSGSAGAN [YJL041W/NSP1]
protein stability index (doa10∆): 2.83 ± 0.11
protein stability index (pdr5∆): 2.81 ± 0.13
protein stability index (san1∆): 3.02 ± 0.13
protein stability index (ubr1∆): 3 ± 0.071

EAEIECFDSTTGRDAGF [RRP40]
protein stability index (doa10∆): 3.15 ± 0.17
protein stability index (pdr5∆): 3.12 ± 0.17
protein stability index (san1∆): 3.28 ± 0.095
protein stability index (ubr1∆): 3.2 ± 0.12

EAESQLRAAQQQWGNDF [FAS2]
protein stability index (doa10∆): 3.12 ± 0.072
protein stability index (pdr5∆): 3.35 ± 0.063
protein stability index (san1∆): 3.07 ± 0.072
protein stability index (ubr1∆): 3.23 ± 0.044

EAESQWYIEKVIRIPMQ [CSI1]
protein stability index (pdr5∆): 2.96 ± 0.24
protein stability index (ubr1∆): 2.71 ± 0.24

EAKERYTDRDQDEVNKG [NNF1]
protein stability index (doa10∆): 3.26 ± 0.15
protein stability index (pdr5∆): 3.28 ± 0.13
protein stability index (san1∆): 3.3 ± 0.22
protein stability index (ubr1∆): 3.74 ± 0.11
